# Test results taken from patent US20140087995A1 (published 2014).
# Numbered stars: 1 amine (or outer) side, 2 acyl side, 3 side chain; on linkers, the order of the positions; unused ones are H or OH. Bridge positions count the residues as written; N and C are the ends. Side chains are listed from the residue outwards. Ends that are not written are not given here. * marks the point of attachment. C20 diacid = O=C(O)CCCCCCCCCCCCCCCCCCC(=O)*; γGlu = O=C(O)[C@H](CCC(=O)[*:2])N[*:1]
# T1: rat amylin receptor (rat calcitonin receptor + rat RAMP 3) (rat, UniProt P32214 25-516; Q9JJ73 23-147)
# T1 construct: whole, on cells; Membranes of transiently transfected BHK tk'ts 13 cells (Assay VI); also called rAmylin-R; rat amylin 3(a) receptor
# T1 sequence (looked up) 1: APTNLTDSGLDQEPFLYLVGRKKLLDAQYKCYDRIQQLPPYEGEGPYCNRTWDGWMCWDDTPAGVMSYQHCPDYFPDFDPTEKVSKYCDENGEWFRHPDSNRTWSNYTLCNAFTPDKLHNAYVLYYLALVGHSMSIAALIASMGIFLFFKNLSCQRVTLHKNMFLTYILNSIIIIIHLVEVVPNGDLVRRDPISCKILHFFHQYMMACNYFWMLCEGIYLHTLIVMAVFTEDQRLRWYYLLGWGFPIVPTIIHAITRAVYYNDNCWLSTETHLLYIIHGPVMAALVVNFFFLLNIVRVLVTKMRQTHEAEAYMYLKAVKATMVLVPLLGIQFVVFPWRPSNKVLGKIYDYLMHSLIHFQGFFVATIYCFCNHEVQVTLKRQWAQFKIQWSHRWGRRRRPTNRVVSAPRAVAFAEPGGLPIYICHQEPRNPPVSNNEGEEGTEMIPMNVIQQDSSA
# T1 sequence (looked up) 2: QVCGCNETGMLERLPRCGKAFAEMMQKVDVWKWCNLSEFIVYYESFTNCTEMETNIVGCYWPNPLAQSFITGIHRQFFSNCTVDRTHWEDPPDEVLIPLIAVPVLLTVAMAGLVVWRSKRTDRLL
# T2: rat calcitonin receptor (rat, UniProt P32214 25-516)
# T2 construct: whole, on cells; Membranes of transiently transfected BHK tk'ts 13 cells (Assay VIII); also called rCTR
# T2 sequence (looked up): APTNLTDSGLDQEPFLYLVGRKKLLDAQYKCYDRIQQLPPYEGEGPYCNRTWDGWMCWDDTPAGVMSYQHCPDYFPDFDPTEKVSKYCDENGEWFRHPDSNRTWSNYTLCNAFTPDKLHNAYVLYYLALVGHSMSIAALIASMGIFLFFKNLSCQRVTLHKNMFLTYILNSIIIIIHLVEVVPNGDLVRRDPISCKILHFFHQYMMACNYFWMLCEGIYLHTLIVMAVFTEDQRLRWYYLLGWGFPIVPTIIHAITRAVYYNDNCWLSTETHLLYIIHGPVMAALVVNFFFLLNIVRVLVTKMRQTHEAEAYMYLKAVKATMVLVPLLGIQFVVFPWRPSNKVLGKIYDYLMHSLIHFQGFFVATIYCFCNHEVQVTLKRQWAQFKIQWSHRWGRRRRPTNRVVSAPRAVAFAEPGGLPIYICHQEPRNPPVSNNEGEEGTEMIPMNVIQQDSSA
# T3: human calcitonin receptor (human, UniProt P30988 25-474)
# T3 construct: whole, on cells; Membranes of a stably transfected BHK cell line (Assay VII); also called hCTR; hCT
# T3 sequence (looked up): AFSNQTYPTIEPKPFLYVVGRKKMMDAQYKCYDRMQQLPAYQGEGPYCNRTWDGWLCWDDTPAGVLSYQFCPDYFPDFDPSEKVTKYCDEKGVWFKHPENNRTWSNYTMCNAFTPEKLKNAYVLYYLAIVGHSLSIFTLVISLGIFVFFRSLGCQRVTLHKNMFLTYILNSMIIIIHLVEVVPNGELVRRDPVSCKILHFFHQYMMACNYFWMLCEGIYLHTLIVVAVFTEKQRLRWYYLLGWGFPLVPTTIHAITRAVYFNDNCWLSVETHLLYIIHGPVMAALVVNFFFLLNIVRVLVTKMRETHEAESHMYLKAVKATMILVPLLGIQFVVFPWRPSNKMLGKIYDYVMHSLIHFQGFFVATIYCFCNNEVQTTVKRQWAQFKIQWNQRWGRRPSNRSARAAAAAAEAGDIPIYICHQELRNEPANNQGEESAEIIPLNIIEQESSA
# How the values were obtained:
# [1] = molecular target: T1, rat amylin receptor (rat calcitonin …); test: SPA competition with 125I-rat amylin, membranes of BHK cells with rat calcitonin receptor + rat RAMP3 (Assay VI)
# rat calcitonin receptor [2] = molecular target: T2, rat calcitonin receptor; test: SPA competition with 125I-calcitonin, membranes of BHK cells with rat calcitonin receptor (Assay VIII)
# rat calcitonin receptor [3] = molecular target: T2, rat calcitonin receptor; test: ratio IC50 rat calcitonin receptor / IC50 rat amylin receptor (reference)
# [4] = molecular target: T3, human calcitonin receptor; test: ratio IC50 human calcitonin receptor / IC50 human amylin receptor (reference)
# Method in brief: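 Membranes (35 ng/μL final) + SPA beads, 50 mM Hepes pH 7.4 buffer with 1 mM CaCl2, 5 mM MgCl₂, 0.1% OA, 0.02% Tween20; 120 min, 25° C, shaking; centrifuged, counted; IC₅₀ by one-site binding competition.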
Binder,IC50 [1] [nM],IC50 (rat calcitonin receptor [2]) [nM],Ratio rCT/rAmylin binding (rat calcitonin receptor [3]),Ratio hCT/hAmylin binding [4]
"{C20 diacid-γGlu}-GRCNTATCATQRLAHFLRHSSPNFGAIPSSTNVGHNTY-NH2 (disulfide 3-8; SMILES CC[C@H](C)[C@H](NC(=O)[C@H](C)NC(=O)CNC(=O)[C@H](Cc1ccccc1)NC(=O)[C@H](CC(N)=O)NC(=O)[C@@H]1CCCN1C(=O)[C@H](CO)NC(=O)[C@H](CO)NC(=O)[C@H](Cc1c[nH]cn1)NC(=O)[C@H](CCCNC(=N)N)NC(=O)[C@H](CC(C)C)NC(=O)[C@H](Cc1ccccc1)NC(=O)[C@H](Cc1c[nH]cn1)NC(=O)[C@H](C)NC(=O)[C@H](CC(C)C)NC(=O)[C@H](CCCNC(=N)N)NC(=O)[C@H](CCC(N)=O)NC(=O)[C@@H](NC(=O)[C@H](C)NC(=O)[C@@H]1CSSC[C@H](NC(=O)[C@H](CCCNC(=N)N)NC(=O)CNC(=O)CC[C@H](NC(=O)CCCCCCCCCCCCCCCCCCC(=O)O)C(=O)O)C(=O)N[C@@H](CC(N)=O)C(=O)N[C@@H]([C@@H](C)O)C(=O)N[C@@H](C)C(=O)N[C@@H]([C@@H](C)O)C(=O)N1)[C@@H](C)O)C(=O)N1CCC[C@H]1C(=O)N[C@@H](CO)C(=O)N[C@@H](CO)C(=O)N[C@H](C(=O)N[C@@H](CC(N)=O)C(=O)N[C@H](C(=O)NCC(=O)N[C@@H](Cc1c[nH]cn1)C(=O)N[C@@H](CC(N)=O)C(=O)N[C@H](C(=O)N[C@@H](Cc1ccc(O)cc1)C(N)=O)[C@@H](C)O)C(C)C)[C@@H](C)O, also called compound 100)",11.2,311,27.7,65.3
{C20 diacid-γGlu}-GRCNTATCATQRLAAFLRHSSPNFGAIPSSTNVGHNTY-NH2 (disulfide 3-8; SMILES CC[C@H](C)[C@H](NC(=O)[C@H](C)NC(=O)CNC(=O)[C@H](Cc1ccccc1)NC(=O)[C@H](CC(N)=O)NC(=O)[C@@H]1CCCN1C(=O)[C@H](CO)NC(=O)[C@H](CO)NC(=O)[C@H](Cc1c[nH]cn1)NC(=O)[C@H](CCCNC(=N)N)NC(=O)[C@H](CC(C)C)NC(=O)[C@H](Cc1ccccc1)NC(=O)[C@H](C)NC(=O)[C@H](C)NC(=O)[C@H](CC(C)C)NC(=O)[C@H](CCCNC(=N)N)NC(=O)[C@H](CCC(N)=O)NC(=O)[C@@H](NC(=O)[C@H](C)NC(=O)[C@@H]1CSSC[C@H](NC(=O)[C@H](CCCNC(=N)N)NC(=O)CNC(=O)CC[C@H](NC(=O)CCCCCCCCCCCCCCCCCCC(=O)O)C(=O)O)C(=O)N[C@@H](CC(N)=O)C(=O)N[C@@H]([C@@H](C)O)C(=O)N[C@@H](C)C(=O)N[C@@H]([C@@H](C)O)C(=O)N1)[C@@H](C)O)C(=O)N1CCC[C@H]1C(=O)N[C@@H](CO)C(=O)N[C@@H](CO)C(=O)N[C@H](C(=O)N[C@@H](CC(N)=O)C(=O)N[C@H](C(=O)NCC(=O)N[C@@H](Cc1c[nH]cn1)C(=O)N[C@@H](CC(N)=O)C(=O)N[C@H](C(=O)N[C@@H](Cc1ccc(O)cc1)C(N)=O)[C@@H](C)O)C(C)C)[C@@H](C)O),8.07,492,60.9,68.6
"K([γGlu-γGlu-C20 diacid])CNTATCATQRLAHFLRHSSPNFGAIPSSTNVGSNTY-NH2 (disulfide 2-7; N-terminus assumed; SMILES CC[C@H](C)[C@H](NC(=O)[C@H](C)NC(=O)CNC(=O)[C@H](Cc1ccccc1)NC(=O)[C@H](CC(N)=O)NC(=O)[C@@H]1CCCN1C(=O)[C@H](CO)NC(=O)[C@H](CO)NC(=O)[C@H](Cc1c[nH]cn1)NC(=O)[C@H](CCCNC(=N)N)NC(=O)[C@H](CC(C)C)NC(=O)[C@H](Cc1ccccc1)NC(=O)[C@H](Cc1c[nH]cn1)NC(=O)[C@H](C)NC(=O)[C@H](CC(C)C)NC(=O)[C@H](CCCNC(=N)N)NC(=O)[C@H](CCC(N)=O)NC(=O)[C@@H](NC(=O)[C@H](C)NC(=O)[C@@H]1CSSC[C@H](NC(=O)[C@@H](N)CCCCNC(=O)CC[C@H](NC(=O)CC[C@H](NC(=O)CCCCCCCCCCCCCCCCCCC(=O)O)C(=O)O)C(=O)O)C(=O)N[C@@H](CC(N)=O)C(=O)N[C@@H]([C@@H](C)O)C(=O)N[C@@H](C)C(=O)N[C@@H]([C@@H](C)O)C(=O)N1)[C@@H](C)O)C(=O)N1CCC[C@H]1C(=O)N[C@@H](CO)C(=O)N[C@@H](CO)C(=O)N[C@H](C(=O)N[C@@H](CC(N)=O)C(=O)N[C@H](C(=O)NCC(=O)N[C@@H](CO)C(=O)N[C@@H](CC(N)=O)C(=O)N[C@H](C(=O)N[C@@H](Cc1ccc(O)cc1)C(N)=O)[C@@H](C)O)C(C)C)[C@@H](C)O, also called compound 92)",0.668,104,156,145

# More lines, in order of falling IC50 [1], values ahead:
IC50 [1] [nM],IC50 (rat calcitonin receptor [2]) [nM],Ratio rCT/rAmylin binding (rat calcitonin receptor [3]),Ratio hCT/hAmylin binding [4],Binder
0.674,65.9,97.7,36.2,{C20 diacid-γGlu}-GRCNTATCATQRLAHFLRHSSPNFGAIPSSTNVGPNTY-NH2 (disulfide 3-8; SMILES CC[C@H](C)[C@H](NC(=O)[C@H](C)NC(=O)CNC(=O)[C@H](Cc1ccccc1)NC(=O)[C@H](CC(N)=O)NC(=O)[C@@H]1CCCN1C(=O)[C@H](CO)NC(=O)[C@H](CO)NC(=O)[C@H](Cc1c[nH]cn1)NC(=O)[C@H](CCCNC(=N)N)NC(=O)[C@H](CC(C)C)NC(=O)[C@H](Cc1ccccc1)NC(=O)[C@H](Cc1c[nH]cn1)NC(=O)[C@H](C)NC(=O)[C@H](CC(C)C)NC(=O)[C@H](CCCNC(=N)N)NC(=O)[C@H](CCC(N)=O)NC(=O)[C@@H](NC(=O)[C@H](C)NC(=O)[C@@H]1CSSC[C@H](NC(=O)[C@H](CCCNC(=N)N)NC(=O)CNC(=O)CC[C@H](NC(=O)CCCCCCCCCCCCCCCCCCC(=O)O)C(=O)O)C(=O)N[C@@H](CC(N)=O)C(=O)N[C@@H]([C@@H](C)O)C(=O)N[C@@H](C)C(=O)N[C@@H]([C@@H](C)O)C(=O)N1)[C@@H](C)O)C(=O)N1CCC[C@H]1C(=O)N[C@@H](CO)C(=O)N[C@@H](CO)C(=O)N[C@H](C(=O)N[C@@H](CC(N)=O)C(=O)N[C@H](C(=O)NCC(=O)N1CCC[C@H]1C(=O)N[C@@H](CC(N)=O)C(=O)N[C@H](C(=O)N[C@@H](Cc1ccc(O)cc1)C(N)=O)[C@@H](C)O)C(C)C)[C@@H](C)O)
0.436,56.3,129,26.5,{C20 diacid-γGlu}-GRCNTATCATQRLAAFLRHSSPNFGAIPSSTNVGPNTY-NH2 (disulfide 3-8)
0.161,140,868,45.3,"K([γGlu-γGlu-C20 diacid])CNTATCATQRLASFLRHSSPNFGAIPSSTNVGPETY-NH2 (disulfide 2-7; N-terminus assumed; SMILES CC[C@H](C)[C@H](NC(=O)[C@H](C)NC(=O)CNC(=O)[C@H](Cc1ccccc1)NC(=O)[C@H](CC(N)=O)NC(=O)[C@@H]1CCCN1C(=O)[C@H](CO)NC(=O)[C@H](CO)NC(=O)[C@H](Cc1c[nH]cn1)NC(=O)[C@H](CCCNC(=N)N)NC(=O)[C@H](CC(C)C)NC(=O)[C@H](Cc1ccccc1)NC(=O)[C@H](CO)NC(=O)[C@H](C)NC(=O)[C@H](CC(C)C)NC(=O)[C@H](CCCNC(=N)N)NC(=O)[C@H](CCC(N)=O)NC(=O)[C@@H](NC(=O)[C@H](C)NC(=O)[C@@H]1CSSC[C@H](NC(=O)[C@@H](N)CCCCNC(=O)CC[C@H](NC(=O)CC[C@H](NC(=O)CCCCCCCCCCCCCCCCCCC(=O)O)C(=O)O)C(=O)O)C(=O)N[C@@H](CC(N)=O)C(=O)N[C@@H]([C@@H](C)O)C(=O)N[C@@H](C)C(=O)N[C@@H]([C@@H](C)O)C(=O)N1)[C@@H](C)O)C(=O)N1CCC[C@H]1C(=O)N[C@@H](CO)C(=O)N[C@@H](CO)C(=O)N[C@H](C(=O)N[C@@H](CC(N)=O)C(=O)N[C@H](C(=O)NCC(=O)N1CCC[C@H]1C(=O)N[C@@H](CCC(=O)O)C(=O)N[C@H](C(=O)N[C@@H](Cc1ccc(O)cc1)C(N)=O)[C@@H](C)O)C(C)C)[C@@H](C)O, also called compound 120)"
